Test results reported in publication PMC4231716.

Target: HIV-1JR-FLΔCT Env trimer (HIV-1 JR-FL) (UniProt Q75760)
Assay: flow cytometry on cells

Substance: C34-Ig, fusion protein of an immunoglobulin Fc and the gp41 HR2 peptide (Fc fusion)
- percent of Env-expressing cells binding C34-Ig: 37%
